Assay results published in IntAct's records for PubMed 15555586.

B1: Suppressor of kinetochore protein 1 (Schizosaccharomyces pombe (strain ATCC 38366 / 972)), Q9Y709 (parent)
chain: MSKIKLISSDNEEFVVDQLIAERSMLIKNMLEDVGEINVPIPLPNVSSNVLRKVLEWCEHHKNDLYSGTEEESDIRLKKSTDIDEWDRKFMAVDQEMLFEIVLASNYLDIKPLLDTGCKTVANMIRGKSPEDIRKTFNIPNDFTPEEEEQIRKENEWAEDR
partner: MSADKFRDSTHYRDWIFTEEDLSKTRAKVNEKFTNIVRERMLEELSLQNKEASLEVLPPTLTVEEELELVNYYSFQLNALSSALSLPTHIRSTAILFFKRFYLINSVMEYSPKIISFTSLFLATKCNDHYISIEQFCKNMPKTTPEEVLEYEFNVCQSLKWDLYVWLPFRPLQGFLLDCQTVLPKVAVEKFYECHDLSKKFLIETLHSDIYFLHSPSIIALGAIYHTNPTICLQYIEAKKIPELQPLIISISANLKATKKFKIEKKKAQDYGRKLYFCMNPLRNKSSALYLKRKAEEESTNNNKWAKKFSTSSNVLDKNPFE

Variants of: B1
Settings: with cgm2_schpo mcs2, P36613

effect of a mutation on the interaction | Variant
decreasing interaction | I139N
